The source of these data is the Human Domainome abundance scans (Beltran et al. 2025).

± gives the uncertainty stated by the source.

A short description of the data set: abundance fitness (aPCA) (normalised: wild type 0, dead -1); higher = more abundant; growth selection in yeast, the domain comes from the species named. The following applies: Homo sapiens.
“BAG family molecular chaperone regulator 3 Q11S, O95817” came in with an abundance fitness of 0.63 ± 0.11.

Substance “BAG family molecular chaperone regulator 3 Q11T, O95817” registered an abundance fitness of 0.18 ± 0.49.

“BAG family molecular chaperone regulator 3 Q11V, O95817” had an abundance fitness of 0.619 ± 0.1.

With “BAG family molecular chaperone regulator 3 Q11Y, O95817”, the abundance fitness was 0.795 ± 0.15.

Take “BAG family molecular chaperone regulator 3 Q33A, O95817”: the abundance fitness was determined as 0.032 ± 0.15.

“BAG family molecular chaperone regulator 3 Q33C, O95817”: the abundance fitness is -0.352 ± 0.2.

“BAG family molecular chaperone regulator 3 Q33E, O95817” registered an abundance fitness of 0.11 ± 0.064.

As for “BAG family molecular chaperone regulator 3 Q33F, O95817”, the abundance fitness is -0.183 ± 0.27.

Substance “BAG family molecular chaperone regulator 3 Q33G, O95817” had an abundance fitness of 0.128 ± 0.059.

Turning to “BAG family molecular chaperone regulator 3 Q33H, O95817”, the abundance fitness is -0.708 ± 0.49.

In the case of “BAG family molecular chaperone regulator 3 Q33I, O95817”, the abundance fitness was -0.499 ± 0.35.

“BAG family molecular chaperone regulator 3 Q33K, O95817” had an abundance fitness of 0.035 ± 0.21.

Consider “BAG family molecular chaperone regulator 3 Q33M, O95817”, for which the abundance fitness was -0.29 ± 0.3.

In the case of “BAG family molecular chaperone regulator 3 Q33N, O95817”, the abundance fitness was -0.357 ± 0.29.

With “BAG family molecular chaperone regulator 3 Q33P, O95817”, the abundance fitness is -0.591 ± 0.3.

Turning to “BAG family molecular chaperone regulator 3 Q33S, O95817”, the abundance fitness is -0.265 ± 0.14.

Substance “BAG family molecular chaperone regulator 3 Q33T, O95817” came in with an abundance fitness of -0.583 ± 0.3.

“BAG family molecular chaperone regulator 3 Q33V, O95817” registered an abundance fitness of -0.428 ± 0.068.

Turning to “BAG family molecular chaperone regulator 3 Q33W, O95817”, the abundance fitness is -0.384 ± 0.081.

Substance “BAG family molecular chaperone regulator 3 Q33Y, O95817” showed an abundance fitness of -0.545 ± 0.46.

With “BAG family molecular chaperone regulator 3 R19A, O95817”, the abundance fitness is -0.071 ± 0.11.

In turn, “BAG family molecular chaperone regulator 3 R19C, O95817” displayed an abundance fitness of -0.341 ± 0.19.

Regarding “BAG family molecular chaperone regulator 3 R19D, O95817”, the abundance fitness is -0.499 ± 0.31.

As for “BAG family molecular chaperone regulator 3 R19E, O95817”, the abundance fitness worked out at 0.208 ± 0.15.

“BAG family molecular chaperone regulator 3 R19F, O95817” came in with an abundance fitness of -0.743 ± 0.32.

With “BAG family molecular chaperone regulator 3 R19G, O95817”, the abundance fitness was -0.35 ± 0.12.

The substance “BAG family molecular chaperone regulator 3 R19H, O95817” came in with an abundance fitness of -0.399 ± 0.18.

In the case of “BAG family molecular chaperone regulator 3 R19I, O95817”, the abundance fitness amounted to 0.367 ± 0.17.

In the case of “BAG family molecular chaperone regulator 3 R19K, O95817”, the abundance fitness is 0.042 ± 0.11.

As to “BAG family molecular chaperone regulator 3 R19L, O95817”, the abundance fitness is -0.455 ± 0.17.

In the case of “BAG family molecular chaperone regulator 3 R19M, O95817”, the abundance fitness is -0.37 ± 0.28.

As for “BAG family molecular chaperone regulator 3 R19N, O95817”, the abundance fitness is -0.125 ± 0.13.

On to “BAG family molecular chaperone regulator 3 R19P, O95817”, for which the abundance fitness is -0.253 ± 0.23.

As to “BAG family molecular chaperone regulator 3 R19Q, O95817”, the abundance fitness is -0.333 ± 0.084.

“BAG family molecular chaperone regulator 3 R19S, O95817” registered an abundance fitness of -0.006 ± 0.062.

“BAG family molecular chaperone regulator 3 R19T, O95817” yielded an abundance fitness of -0.169 ± 0.096.

In the case of “BAG family molecular chaperone regulator 3 R19V, O95817”, the abundance fitness is -0.221 ± 0.073.

The substance “BAG family molecular chaperone regulator 3 R19W, O95817” displayed an abundance fitness of -0.342 ± 0.073.

“BAG family molecular chaperone regulator 3 R19Y, O95817” gave an abundance fitness of -0.27 ± 0.094.

On to “BAG family molecular chaperone regulator 3 R45C, O95817”, for which the abundance fitness is -0.165 ± 0.17.

“BAG family molecular chaperone regulator 3 R45D, O95817”: the abundance fitness was -0.557 ± 0.32.

“BAG family molecular chaperone regulator 3 R45E, O95817” gave an abundance fitness of -0.422 ± 0.2.

“BAG family molecular chaperone regulator 3 R45F, O95817” came in with an abundance fitness of -0.4 ± 0.087.

With “BAG family molecular chaperone regulator 3 R45G, O95817”, the abundance fitness is -0.087 ± 0.085.

The substance “BAG family molecular chaperone regulator 3 R45H, O95817” yielded an abundance fitness of 0.367 ± 0.25.

“BAG family molecular chaperone regulator 3 R45K, O95817” showed an abundance fitness of -0.043 ± 0.077.

With “BAG family molecular chaperone regulator 3 R45L, O95817”, the abundance fitness is -0.594 ± 0.18.

Consider “BAG family molecular chaperone regulator 3 R45M, O95817”, for which the abundance fitness is -0.442 ± 0.2.

For the substance “BAG family molecular chaperone regulator 3 R45N, O95817”, the abundance fitness amounted to 0.54 ± 0.18.

The substance “BAG family molecular chaperone regulator 3 R45P, O95817” came in with an abundance fitness of -0.321 ± 0.35.

With “BAG family molecular chaperone regulator 3 R45Q, O95817”, the abundance fitness was found to be 0.541 ± 0.17.

Take “BAG family molecular chaperone regulator 3 R45S, O95817”: the abundance fitness was -0.354 ± 0.084.

On to “BAG family molecular chaperone regulator 3 R45T, O95817”, for which the abundance fitness was -0.409 ± 0.28.

Substance “BAG family molecular chaperone regulator 3 R45V, O95817” yielded an abundance fitness of -0.692 ± 0.091.

In the case of “BAG family molecular chaperone regulator 3 R45W, O95817”, the abundance fitness is -0.843 ± 0.18.

Take “BAG family molecular chaperone regulator 3 R45Y, O95817”: the abundance fitness is -0.229 ± 0.22.

In turn, “BAG family molecular chaperone regulator 3 R53A, O95817” had an abundance fitness of -0.422 ± 0.14.

In turn, “BAG family molecular chaperone regulator 3 R53C, O95817” showed an abundance fitness of -0.551 ± 0.23.

For the substance “BAG family molecular chaperone regulator 3 R53D, O95817”, the abundance fitness was -0.822 ± 0.49.

Regarding “BAG family molecular chaperone regulator 3 R53E, O95817”, the abundance fitness is -0.646 ± 0.14.

“BAG family molecular chaperone regulator 3 R53G, O95817” gave an abundance fitness of -0.295 ± 0.09.

With “BAG family molecular chaperone regulator 3 R53H, O95817”, the abundance fitness is -0.611 ± 0.3.

The substance “BAG family molecular chaperone regulator 3 R53K, O95817” gave an abundance fitness of -0.424 ± 0.28.

Substance “BAG family molecular chaperone regulator 3 R53L, O95817” displayed an abundance fitness of -0.732 ± 0.09.

For “BAG family molecular chaperone regulator 3 R53M, O95817”, the abundance fitness was -0.296 ± 0.25.

“BAG family molecular chaperone regulator 3 R53N, O95817” registered an abundance fitness of -0.257 ± 0.44.

With “BAG family molecular chaperone regulator 3 R53P, O95817”, the abundance fitness was -0.653 ± 0.083.

Consider “BAG family molecular chaperone regulator 3 R53S, O95817”, for which the abundance fitness is -0.523 ± 0.18.

Take “BAG family molecular chaperone regulator 3 R53T, O95817”: the abundance fitness was -0.225 ± 0.25.

On to “BAG family molecular chaperone regulator 3 R53V, O95817”, for which the abundance fitness was -0.715 ± 0.22.

For “BAG family molecular chaperone regulator 3 R53W, O95817”, the abundance fitness was -0.861 ± 0.14.

For “BAG family molecular chaperone regulator 3 R53Y, O95817”, the abundance fitness is -0.788 ± 0.14.

For “BAG family molecular chaperone regulator 3 S14A, O95817”, the abundance fitness was -0.285 ± 0.14.

Regarding “BAG family molecular chaperone regulator 3 S14C, O95817”, the abundance fitness is -0.542 ± 0.42.

“BAG family molecular chaperone regulator 3 S14D, O95817” returned an abundance fitness of 0.102 ± 0.14.

On to “BAG family molecular chaperone regulator 3 S14E, O95817”, for which the abundance fitness worked out at 0.233 ± 0.085.

“BAG family molecular chaperone regulator 3 S14F, O95817” registered an abundance fitness of -0.528 ± 0.28.

The substance “BAG family molecular chaperone regulator 3 S14G, O95817” showed an abundance fitness of -0.641 ± 0.1.

Regarding “BAG family molecular chaperone regulator 3 S14H, O95817”, the abundance fitness stood at 0.623 ± 0.12.

For “BAG family molecular chaperone regulator 3 S14I, O95817”, the abundance fitness was found to be 0.059 ± 0.23.

With “BAG family molecular chaperone regulator 3 S14K, O95817”, the abundance fitness is 0.023 ± 0.28.
